The record followed here is article PMC10031210.

pKd: −log10 of the molar value. Where two headings read alike, the source gives them in different places.

Test [1] has as its target unfolded transmembrane β-barrel of outer membrane protein A (uOmpA171) (E. coli) (UniProt P0A910). The experiment in a line: AUC.
Target sequence in this assay (P0A910 22-192): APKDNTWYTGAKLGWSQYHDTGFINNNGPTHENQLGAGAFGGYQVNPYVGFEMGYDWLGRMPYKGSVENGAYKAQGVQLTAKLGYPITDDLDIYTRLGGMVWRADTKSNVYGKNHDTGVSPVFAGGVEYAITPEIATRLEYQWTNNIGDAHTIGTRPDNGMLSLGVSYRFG
The target is the same in test [2]. The experiment in a line: AUC. This is another data set of the same source.
Target sequence in this assay (P0A910 22-192): as above
The target is the same in test [3]. The experiment in a line: AUC. The source holds these as a separate data set.
Target sequence in this assay (P0A910 22-192): as above
Test [4] has as its target FkpA (full-length, dimeric form) (E. coli) (UniProt P45523). The experiment in a line: AUC.
In test [5] the target is unfolded transmembrane β-barrel of outer membrane protein A (uOmpA171) (E. coli) (UniProt P0A910). The experiment in a line: AUC. This is another data set of the same source.
Target sequence in this assay (P0A910 22-192): as above
For test [6] the target is unchanged. The test can be described thus: AUC. The source holds these as a separate data set.
Target sequence in this assay (P0A910 22-192): as above
For test [7], the target named is unfolded β-barrel assembly machine A (uBamA) (UniProt P0A940). The test can be described thus: cross-linking.
In test [8] the target is unfolded outer membrane protein X (uOmpX) (E. coli) (UniProt P0A917). The test can be described thus: cross-linking.
Test [9] addresses unfolded transmembrane β-barrel of outer membrane protein A (uOmpA171) (E. coli) (UniProt P0A910). The experiment in a line: cross-linking.
Test [10] has as its target N-FkpA (N-terminal domain of FkpA) (E. coli) (UniProt P45523). The experiment in a line: AUC.

For the substance “FkpA (full-length, dimeric form) (from UniProt P45523 26-270) (natural protein)”, the pKd in test [1] is 5.96; in [2] it was 6.40; in [3], 6.15; in test [5] it was 5.54; in test [6] it was 8.10. The substance further had a stoichiometry N in test [4] of 2.

With “FkpA pAzF variant Y225pAzF (from UniProt P45523 26-270) (natural protein)”, the values for the crosslinking efficiency in test [7], in test [8] and in [9] were 81.8%, 81% and 83.2%, respectively.

The substance “N-FkpA (N-terminal domain of FkpA) (from UniProt P45523 26-270) (domain or fragment)” showed a pKd in test [1] of 4.36. This substance also registered a stoichiometry N in [10] of 2.

As usually defined, the pKd is the negative decadic logarithm of the Kd, by convention in mol/L. High values mean a low Kd, low ones a high Kd. A word on the stoichiometry N: it is the number of molecules, sites or subunits per partner or assembly.
